# T1: vascular endothelial growth factor (VEGF)-A121 (human, UniProt P15692-9 27-147)
# T1 construct: mature; Purchased in mature form, not glycosylated
# T1 sequence (looked up): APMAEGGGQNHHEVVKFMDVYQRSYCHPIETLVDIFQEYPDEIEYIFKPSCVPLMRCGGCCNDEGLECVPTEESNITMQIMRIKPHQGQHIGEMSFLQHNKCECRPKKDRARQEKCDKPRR
# T2: placental growth factor (PlGF)-1 (human, UniProt P49763-2 19-149)
# T2 construct: mature; Purchased in mature form
# T2 sequence (looked up): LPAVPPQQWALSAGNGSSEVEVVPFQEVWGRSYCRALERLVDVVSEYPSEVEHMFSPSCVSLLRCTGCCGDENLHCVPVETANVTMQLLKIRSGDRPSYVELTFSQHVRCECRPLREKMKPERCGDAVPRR
# T3: placental growth factor (PlGF)-2 (human, UniProt P49763-3 19-170)
# T3 construct: mature; Purchased in mature form
# T3 sequence (looked up): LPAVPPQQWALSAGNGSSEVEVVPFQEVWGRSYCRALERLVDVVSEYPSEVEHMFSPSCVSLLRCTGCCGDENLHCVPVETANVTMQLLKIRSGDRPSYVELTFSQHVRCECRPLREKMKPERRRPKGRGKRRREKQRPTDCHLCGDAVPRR
# T4: mVEGF-C (mouse, UniProt P97953)
# T4 construct: also called mouse wild-type VEGF-C
# T4 sequence (growth factor chain, looked up): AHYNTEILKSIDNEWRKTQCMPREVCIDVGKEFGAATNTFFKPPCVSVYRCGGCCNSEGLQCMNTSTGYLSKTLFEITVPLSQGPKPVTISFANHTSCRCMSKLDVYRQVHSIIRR
# T5: recombinant human syndecan-4 (human, UniProt P31431 19-145, limits assumed)
# T5 construct: Histidine tag of unstated position and length
# T5 sequence (looked up): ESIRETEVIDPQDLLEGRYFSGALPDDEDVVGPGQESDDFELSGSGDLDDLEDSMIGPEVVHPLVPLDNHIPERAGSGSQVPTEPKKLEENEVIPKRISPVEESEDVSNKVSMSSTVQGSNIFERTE
# T6: recombinant human syndecan-1 (human, UniProt P18827 23-254, limits assumed)
# T6 construct: Histidine tag of unstated position and length
# T6 sequence (looked up): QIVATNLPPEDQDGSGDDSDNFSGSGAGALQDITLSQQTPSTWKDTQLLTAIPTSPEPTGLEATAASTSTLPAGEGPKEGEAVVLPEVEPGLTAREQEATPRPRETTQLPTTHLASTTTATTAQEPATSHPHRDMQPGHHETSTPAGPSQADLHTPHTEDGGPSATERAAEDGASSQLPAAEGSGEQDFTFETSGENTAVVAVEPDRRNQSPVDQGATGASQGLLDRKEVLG
# B1: vWF A1 HBD peptide (23 residues) (peptide)
# peptide: YIGLKDRKRPSELRRIASQVKYA
# notes: Chemically synthesized (Genscript); also called vWF HBD; vWF A1 peptide
# B2: recombinant human VEGF-A145 (ligand, UniProt P15692-6 27-171, looked up)
# chain: APMAEGGGQNHHEVVKFMDVYQRSYCHPIETLVDIFQEYPDEIEYIFKPSCVPLMRCGGCCNDEGLECVPTEESNITMQIMRIKPHQGQHIGEMSFLQHNKCECRPKKDRARQEKKSVRGKGKGQKRKRKKSRYKSWSVCDKPRR
# B3: FabCol (Fab)
# light: EIVLTQSPGTLSLSPGERATLSCRASQSVSSSYLAWYQQKPGQAPRLLIYGASSRATGIPDRFSGSGSGTDFTLTISRLEPEDFAVYYCQQAIGFPQTFGQGTKVEIKRTVAAPSVFIFPPSDEQLKSGTASVVCLLNNFYPREAKVQWKVDNALQSGNSQESVTEQDSKDSTYSLSSTLTLSKADYEKHKVYACEVTHQGLSSPVTKSFNRGEC
# heavy: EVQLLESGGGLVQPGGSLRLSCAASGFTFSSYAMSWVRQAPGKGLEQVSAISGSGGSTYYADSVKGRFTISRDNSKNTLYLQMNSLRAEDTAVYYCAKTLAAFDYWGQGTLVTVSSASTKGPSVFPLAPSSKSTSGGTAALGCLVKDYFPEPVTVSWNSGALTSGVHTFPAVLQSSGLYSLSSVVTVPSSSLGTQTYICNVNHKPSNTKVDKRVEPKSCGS
# notes: Human Fab with human Fab constant regions; also called non-conjugated FabCol; anti-collagen I Fab (clone C11)
# B4: laminin α5 3539-3550 peptide (LG5) (peptide)
# peptide: TLPDVGLELEVR
# notes: Chemically synthesized (Genscript)
# Key:
# [1] = target: T1, vascular endothelial growth factor …; test: ELISA, HBD peptide coated
# Description: (§1) ELISA tests were performed as described above. […] After blocking with 2% BSA solution containing PBS-T, 1 μg/mL of the recombinant human proteins VEGF-A121, VEGF-A165, PlGF-1, PlGF-2, PDGF-BB, FGF-2, CXCL-12α and CXCL-12γ were added. 1 μg/mL of BSA served as non-binding protein control. Bound GF or chemokine was detected with biotinylated antibodies for human VEGF-A, PlGF, PDGF-BB, FGF-2, or CXCL-12 (R & D Systems). The antibodies were detected by streptavidin-HRP (R & D Systems). Color development and the absorbance measurement were done as described above.
# [2] = target: T2, placental growth factor (PlGF)-1; test: ELISA, HBD peptide coated
# Description: as §1
# [3] = target: T7, recombinant human vWF A1 domain (human, UniProt P04275 1261-1468, limits assumed); test: ELISA, domain coated 50 nM, VEGF-A 1 µg/mL
# T7 construct: domain: A1; also called vWF A1 recombinant protein; recombinant A1 domain
# Description: (§2) ELISA was performed as previously reported1. […] After blocking with 2% BSA solution containing PBS-T, 1 μg/mL of recombinant human VEGF-A121 (PeproTech), recombinant human VEGF-A145 (R & D Systems), or recombinant human VEGF-A165 (PeproTech) was added. Bound VEGF-A was detected with 1 μg/mL of mouse anti-human VEGF-A antibody (clone: 26503, R & D systems). After 60 min of incubation, horseradish peroxidase (HRP) conjugated goat anti-mouse antibody (1:2000 dilution, Dako) was added and incubated for another 60 min. Color development and the absorbance measurement were done as described above.
# [4] = target: T8, recombinant human vWF A3 domain (human, UniProt P04275 1683-1874); test: ELISA, domain coated 50 nM
# T8 construct: domain: A3
# Description: as §2
# [5] = target: T9, recombinant human vWF A2 domain (human, UniProt P04275 1498-1665); test: ELISA, domain coated 50 nM
# T9 construct: domain: A2
# Description: as §2
# [6] = target: T10, human plasma-derived vWF (human, UniProt P04275 764-2813); test: ELISA, vWF coated 50 nM, VEGF-A 1 µg/mL
# T10 construct: mature; also called plasma-derived purified vWF; von Willebrand factor
# Description: as §2
# [7] = target: T3, placental growth factor (PlGF)-2; test: ELISA; growth factors coated at 100 nM, FabCol variants at 100 nM in solution, HRP-anti-human Fab [panel F]
# [8] = target: T11, vascular endothelial growth factor (VEGF)-A165 (human, UniProt P15692-4 27-191); test: as above
# T11 construct: mature; Purchased in mature form, not glycosylated
# [9] = target: T12, platelet-derived growth factor (PDGF)-BB (human, UniProt P01127 82-190); test: as above
# T12 construct: mature; Purchased in mature form
# T12 sequence (P01127 82-190): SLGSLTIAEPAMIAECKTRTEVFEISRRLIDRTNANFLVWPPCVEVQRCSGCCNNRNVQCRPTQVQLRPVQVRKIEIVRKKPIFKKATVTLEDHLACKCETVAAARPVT
# [10] = target: T4, mVEGF-C; test: as above
# [11] = target: T2, placental growth factor (PlGF)-1; test: as above
# [12] = target: T13, recombinant human BMP-2 (human, UniProt P12643 283-396); test: ELISA, rhBMP-2 coated 50 nM
# T13 construct: also called rhBMP-2
# T13 sequence (P12643 283-396 limits assumed): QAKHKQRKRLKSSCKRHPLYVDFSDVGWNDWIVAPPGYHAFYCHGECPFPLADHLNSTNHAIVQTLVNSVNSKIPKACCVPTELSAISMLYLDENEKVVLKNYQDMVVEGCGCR
# Description: ELISA plates (NUNC MaxiSorp) were coated with 50 nM of recombinant human BMP-2 (CHO produced, R&D Systems, Minneapolis MN, USA) overnight at room temperature.
# [13] = target: T14, bovine type I collagen (bovine, UniProt P02453 178-1191; P02465 89-1102); test: ELISA on coated bovine type I collagen (10 µg/mL), FabCol titrated 0.01-30 nM, HRP-anti-human Fab [panel C]
# T14 construct: PureCol, Advanced BioMatrix; coated on the plate; also called collagen I; PureCol
# T14 sequence (P02453 178-1191, chain 1 of 2): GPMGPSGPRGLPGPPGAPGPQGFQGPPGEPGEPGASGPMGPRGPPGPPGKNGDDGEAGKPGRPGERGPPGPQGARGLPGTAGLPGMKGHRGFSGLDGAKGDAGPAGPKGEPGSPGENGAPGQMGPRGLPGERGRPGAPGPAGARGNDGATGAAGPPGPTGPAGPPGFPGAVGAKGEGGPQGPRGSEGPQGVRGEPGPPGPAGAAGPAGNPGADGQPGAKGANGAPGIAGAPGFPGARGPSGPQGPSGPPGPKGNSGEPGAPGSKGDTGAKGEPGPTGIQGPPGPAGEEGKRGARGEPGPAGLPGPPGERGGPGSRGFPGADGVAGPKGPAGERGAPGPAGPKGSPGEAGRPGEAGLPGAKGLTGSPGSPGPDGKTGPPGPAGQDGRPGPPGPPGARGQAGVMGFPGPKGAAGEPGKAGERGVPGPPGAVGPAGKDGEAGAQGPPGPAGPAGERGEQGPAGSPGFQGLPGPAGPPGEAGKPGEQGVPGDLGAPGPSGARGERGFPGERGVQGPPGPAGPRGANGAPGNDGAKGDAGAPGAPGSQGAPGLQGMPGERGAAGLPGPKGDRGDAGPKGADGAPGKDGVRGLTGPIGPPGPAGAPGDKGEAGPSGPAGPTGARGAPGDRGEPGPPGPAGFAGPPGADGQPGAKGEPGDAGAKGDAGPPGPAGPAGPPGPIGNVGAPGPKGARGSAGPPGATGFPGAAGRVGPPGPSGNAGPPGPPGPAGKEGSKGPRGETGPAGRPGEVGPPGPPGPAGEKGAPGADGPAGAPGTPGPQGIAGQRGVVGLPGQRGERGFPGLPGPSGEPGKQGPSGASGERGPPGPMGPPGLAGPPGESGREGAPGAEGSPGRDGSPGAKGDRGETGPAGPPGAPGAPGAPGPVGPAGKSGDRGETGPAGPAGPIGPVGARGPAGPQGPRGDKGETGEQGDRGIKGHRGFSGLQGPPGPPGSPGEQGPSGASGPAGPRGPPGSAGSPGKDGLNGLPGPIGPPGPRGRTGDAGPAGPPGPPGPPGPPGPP
# T14 sequence (P02465 89-1102, chain 2 of 2): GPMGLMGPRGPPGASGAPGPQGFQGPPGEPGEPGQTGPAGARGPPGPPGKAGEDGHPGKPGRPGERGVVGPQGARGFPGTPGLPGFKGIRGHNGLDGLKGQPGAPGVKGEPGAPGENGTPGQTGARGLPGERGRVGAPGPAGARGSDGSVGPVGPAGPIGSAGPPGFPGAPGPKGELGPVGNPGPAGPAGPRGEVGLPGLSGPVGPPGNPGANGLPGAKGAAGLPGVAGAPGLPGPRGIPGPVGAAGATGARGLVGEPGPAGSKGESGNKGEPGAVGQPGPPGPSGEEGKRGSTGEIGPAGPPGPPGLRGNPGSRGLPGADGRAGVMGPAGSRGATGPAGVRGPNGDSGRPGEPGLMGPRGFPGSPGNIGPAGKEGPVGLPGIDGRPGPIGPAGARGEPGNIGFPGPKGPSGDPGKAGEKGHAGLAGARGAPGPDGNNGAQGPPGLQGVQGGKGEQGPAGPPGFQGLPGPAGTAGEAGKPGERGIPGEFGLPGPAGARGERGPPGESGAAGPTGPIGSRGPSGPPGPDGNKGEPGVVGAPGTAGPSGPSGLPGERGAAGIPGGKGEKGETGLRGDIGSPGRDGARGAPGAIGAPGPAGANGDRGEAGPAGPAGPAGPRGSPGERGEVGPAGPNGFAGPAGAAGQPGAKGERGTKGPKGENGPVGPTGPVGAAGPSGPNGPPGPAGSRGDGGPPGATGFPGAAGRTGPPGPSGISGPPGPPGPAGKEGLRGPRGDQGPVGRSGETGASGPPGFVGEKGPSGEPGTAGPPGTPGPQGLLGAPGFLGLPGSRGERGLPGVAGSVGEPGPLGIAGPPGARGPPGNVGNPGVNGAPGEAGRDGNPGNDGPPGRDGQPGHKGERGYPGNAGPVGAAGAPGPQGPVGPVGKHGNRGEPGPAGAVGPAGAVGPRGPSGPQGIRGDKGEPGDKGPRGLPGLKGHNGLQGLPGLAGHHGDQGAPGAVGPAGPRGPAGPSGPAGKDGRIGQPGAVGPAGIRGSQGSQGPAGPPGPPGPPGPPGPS
# Description: (§3) ELISA plates (NUNC MaxiSorp, ThermoFisher Scientific) were coated overnight with 10 μg/mL of bovine type I collagen (PureCol, Advanced BioMatrix, San Diego CA, USA) at room temperature. The plate was further blocked using 2% bovine serum albumine (BSA) for 2 h at room temperature. […] The plate was washed thrice in PBST, and an horseradish peroxidase-conjugated anti-human Fab antibody (Jackson ImmunoResearch,) was used to detect bound FabCol variants. […] Absorbance at 450 nm was read using […], and corrected using the absorbance at 570 nm. Curve fits and dissociation constant KD were computed using Prism (GraphPad Software Inc., USA).
# [14] = target: T14, bovine type I collagen; test: ELISA on coated bovine type I collagen (10 µg/mL), FabCol titrated 0.01-30 nM, HRP-anti-human Fab; table headed 'Estimated KD (nM)' [panel C]
# Description: as §3
# [15] = target: T14, bovine type I collagen; test: ELISA on coated bovine type I collagen (10 µg/mL), FabCol titrated, HRP-anti-human Fab [panel C]
# Description: as §3
# [16] = target: T14, bovine type I collagen; test: ELISA on coated bovine type I collagen (10 µg/mL), FabCol titrated, HRP-anti-human Fab; table headed 'Estimated KD (nM)' [panel C]
# Description: as §3
# [17] = target: T15, recombinant human syndecan-2 (human, UniProt P34741 19-144, limits assumed); test: ELISA, peptide coated, anti-His detection
# T15 construct: Histidine tag of unstated position and length
# T15 sequence (P34741 19-144 limits assumed): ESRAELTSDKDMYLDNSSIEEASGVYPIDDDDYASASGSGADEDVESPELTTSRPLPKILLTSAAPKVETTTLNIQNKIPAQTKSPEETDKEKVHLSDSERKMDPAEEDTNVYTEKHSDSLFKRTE
# Description: (§4) ELISA tests were performed as described above. In brief, ELISA plates were coated with 1 μg/mL laminin peptide (sequences are described in Table 1, chemically synthesized by Genscript) in PBS for 2 hrs at 37° C. 1 μg/mL of BSA served as non-binding protein control. After blocking with 2% BSA PBS-T solution, 1 μg/mL of the recombinant human syndecan-1, syndecan-2, syndecan-3, syndecan-4 (all syndecan proteins are histidine-tagged; SinoBiological) were added. Bound GF was detected with anti-histidine tag antibody (1:1000 dilution, BioLegend).
# [18] = target: T5, recombinant human syndecan-4; test: ELISA, peptide coated, anti-His detection
# Description: as §4
# [19] = target: T16, recombinant human syndecan-3 (human, UniProt O75056 48-387, limits assumed); test: ELISA, peptide coated, anti-His detection
# T16 construct: Histidine tag of unstated position and length
# T16 sequence (O75056 48-387 limits assumed): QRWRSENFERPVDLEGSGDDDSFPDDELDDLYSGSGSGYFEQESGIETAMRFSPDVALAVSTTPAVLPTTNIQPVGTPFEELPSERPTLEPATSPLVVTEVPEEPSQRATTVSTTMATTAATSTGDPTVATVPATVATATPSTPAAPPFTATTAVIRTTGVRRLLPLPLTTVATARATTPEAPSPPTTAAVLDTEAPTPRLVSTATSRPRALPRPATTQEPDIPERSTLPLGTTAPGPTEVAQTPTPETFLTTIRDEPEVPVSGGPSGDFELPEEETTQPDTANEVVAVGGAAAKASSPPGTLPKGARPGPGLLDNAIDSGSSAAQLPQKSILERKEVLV
# Description: as §4
# [20] = target: T6, recombinant human syndecan-1; test: ELISA, peptide coated, anti-His detection
# Description: as §4
# [21] = target: T3, placental growth factor (PlGF)-2; test: ELISA, peptide coated, GF 1 µg/mL
# Outline: (§5)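 Wells coated with 10 μg/mL laminin α3/α4/α5 LG-domain peptides, BSA-coated wells as non-binding control, blocked with 2% BSA PBS-T. Recombinant human GFs added at 1 μg/mL; bound GF detected with GF-specific biotinylated antibody plus streptavidin-HRP (n=4, mean±SEM).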
# [22] = target: T17, fibroblast growth factor (FGF)-2 (human, UniProt P09038 143-288); test: ELISA, peptide coated, GF 1 µg/mL
# T17 construct: mature; Purchased in mature form
# T17 sequence (P09038 143-288): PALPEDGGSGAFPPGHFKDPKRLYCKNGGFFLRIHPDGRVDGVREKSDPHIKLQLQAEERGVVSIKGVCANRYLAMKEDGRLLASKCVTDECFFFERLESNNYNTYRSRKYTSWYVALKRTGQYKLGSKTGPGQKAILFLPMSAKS
# Outline: as §5
# [23] = target: T11, vascular endothelial growth factor …; test: ELISA, peptide coated, GF 1 µg/mL
# Outline: as §5
# [24] = target: T12, platelet-derived growth factor (PDGF)-BB; test: ELISA, peptide coated, GF 1 µg/mL
# Outline: as §5
# [25] = target: T1, vascular endothelial growth factor …; test: ELISA, peptide coated
# Outline: as §5
# [26] = target: T2, placental growth factor (PlGF)-1; test: ELISA, peptide coated
# Outline: as §5
binder,measurement,setting,value
B1,binding result,[1],no binding (tested: 1 µg/mL)
same,binding result,[2],no binding (tested: 1 µg/mL)
B2,binding result,[3],binds
same,binding result,[4],no binding (tested: 1 µg/mL)
same,binding result,[5],no binding (tested: 1 µg/mL)
same,binding result,[6],binds
B3,binding result,[7],no binding (tested: 100 nM (single concentration))
same,binding result,[8],no binding (tested: 100 nM (single concentration))
same,binding result,[9],no binding (tested: 100 nM (single concentration))
same,binding result,[10],no binding (tested: 100 nM (single concentration))
same,binding result,[11],no binding (tested: 100 nM (single concentration))
same,binding result,[12],no binding (tested: 50 nM)
same,EC50 (read off the curve),[13],~1 nM
same,Kd,[14],0.9 nM
same,EC50 (read off the curve),[15],~0.2 nM
same,Kd,[16],0.3 nM
B4,binding result,[17],no binding (tested: 1 µg/mL)
same,binding result,[18],no binding (tested: 1 µg/mL)
same,binding result,[19],no binding (tested: 1 µg/mL)
same,binding result,[20],no binding (tested: 1 µg/mL)
same,binding result,[21],binds
same,binding result,[22],binds
same,binding result,[23],binds
same,binding result,[24],binds
same,binding result,[25],no binding (tested: 1 µg/mL)
same,binding result,[26],no binding (tested: 1 µg/mL)

# Source: US20240092867A1 (UNIVERSITY OF CHICAGO, published 2024)
